Here are results for 1 substance from patent publication US20060166332.

The data set deals with Cre recombinase (Bacteriophage P1?) (UniProt P06956). Put plainly: cell_activity. As to conditions: pCH110 control without loxP in Sure:cre.
UniProt P06956, sequence (P06956 whole entry): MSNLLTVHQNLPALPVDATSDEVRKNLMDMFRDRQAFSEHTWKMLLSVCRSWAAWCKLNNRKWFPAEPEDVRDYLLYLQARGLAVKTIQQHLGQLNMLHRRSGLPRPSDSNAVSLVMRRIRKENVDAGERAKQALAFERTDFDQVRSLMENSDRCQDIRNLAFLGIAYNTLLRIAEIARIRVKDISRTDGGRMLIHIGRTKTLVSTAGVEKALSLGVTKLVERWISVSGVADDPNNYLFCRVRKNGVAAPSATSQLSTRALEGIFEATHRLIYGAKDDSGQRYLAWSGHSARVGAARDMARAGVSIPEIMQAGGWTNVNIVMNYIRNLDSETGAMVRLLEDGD

Regarding pCH110 plasmid without loxP, the activity (% white colonies) is 0.
